Test in all cases: cell-based or functional assay
Experiment [1] has as its target MMP-9.
In experiment [2] the target is MMP-2.
Experiment [3] deals with T1, MMP-7.
T1 sequence (P09237 95-267, species assumed, looked up): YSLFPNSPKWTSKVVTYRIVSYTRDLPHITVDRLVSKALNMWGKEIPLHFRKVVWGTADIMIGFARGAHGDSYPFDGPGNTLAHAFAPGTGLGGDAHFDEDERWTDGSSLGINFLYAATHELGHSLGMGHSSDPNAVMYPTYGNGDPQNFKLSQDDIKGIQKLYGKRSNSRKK

Experiment [4] has as its target angiotensin-converting enzyme (ACE).

Regarding FVAPFPEVFG [FVAPFPEVFG (SEQ ID NO:23)], the “IC50 for the inhibition of MMPs using a fluorescein conjugated gelatin” value (“IC50 for the inhibition of MMPs” below) came to 400 µM in experiment [1], 500 µM in experiment [2] and 300 µM in experiment [3]. Further, in experiment [4], the “IC50 for the inhibition of ACE using the substrate FAPGG” value (“IC50 for the inhibition of ACE” for short) is 650 µM.

Take LNENLLRFFVAPFPEVFG [LNENLLRFFVAPFPEVFG (SEQ ID NO:20)]: the “IC50 for the inhibition of MMPs” value turned out to be 150 µM in experiment [1], 250 µM in experiment [2] and 300 µM in experiment [3]. Further, the “IC50 for the inhibition of ACE” value in experiment [4] worked out at 280 µM.

As for NLHLPLPLL [NLHLPLPLL (SEQ ID NO:12)], the “IC50 for the inhibition of MMPs” value in experiment [1] was determined as 600 µM; in experiment [2], 450 µM; in experiment [3], 1200 µM. Also, the “IC50 for the inhibition of ACE” value in experiment [4] is 15 µM.

For the molecule VENLHLPLPLL [VENLHLPLPLL (SEQ ID NO:18)], the results for the “IC50 for the inhibition of MMPs” value in experiment [1], in experiment [2] and in experiment [3] were 300 µM, 150 µM and 250 µM, respectively. Moreover, the “IC50 for the inhibition of ACE” value in experiment [4] came out at 175 µM.

For ENLHLPLPLL [ENLHLPLPLL (SEQ ID NO:19)], the “IC50 for the inhibition of MMPs” value in experiment [1] amounted to 300 µM; in experiment [2], 200 µM; in experiment [3] it was 275 µM. For the same molecule, the “IC50 for the inhibition of ACE” value in experiment [4] was found to be 250 µM.

Take NENLLRFFVAPFPEVFG [NENLLRFFVAPFPEVFG (SEQ ID NO:21)]: the “IC50 for the inhibition of MMPs” value turned out to be 50 µM in experiment [1], 275 µM in experiment [2] and 850 µM in experiment [3]. The “IC50 for the inhibition of ACE” value in experiment [4] came out at 55 µM.

Consider ENLLRFFVAPFPEVFG [ENLLRFFVAPFPEVFG (SEQ ID NO:22)], for which the “IC50 for the inhibition of MMPs” value was 150 µM in experiment [1], 425 µM in experiment [2] and 1000 µM in experiment [3]. In experiment [4], the “IC50 for the inhibition of ACE” value came out at 250 µM.

Source of the values: US20050187155A1 (NESTEC S A, published 2005).
